This test concerns the target T1, SARS-CoV-2 S protein extracellular domain (S-ECD), prefusion-stabilised trimer (SARS-CoV-2, Wuhan-Hu-1 (wild type), UniProt P0DTC2, proline substitution at residue 986 | proline substitution at residue 987 | …).
T1 construct: also called trimeric SARS-CoV-2 S protein; S trimer
As to the kind of experiment: cryo-EM structure. Conditions: both partners purified.

B1: 7B8 Fab fragment (Fab, V domains shown)
VH: QVQLVESGGGVVQPGRSLRLSCAASGFIFSSYGMHWVRQAPGKGLEWVAVIWFDGSNKYYADSVKGRFTISRDNSKNTLYLQMNSLRAEDTAVYYCARETVSYGMDVWGQGTTVTVSS
VL: NIQMTQSPSAMSASVGDRVTITCRARQGISNYLAWFQQKPGKVPKHLIYAASSLLSGVPSRFSGSGSETEFTLTISSLQPEDFATYYCLQHNSYPYTFGQGTKLEIK
notes: also called Ab4
For B1, the binding result was “binds”.
